Measurements taken from patent US10239925B2, “Peptides and combination of peptides for use in immunotherapy against ovarian cancer and other cancers” (IMMATICS BIOTECHNOLOGIES GMBH, priority 2015, dated 2019).

target: HLA-A*02:01 (Homo sapiens, UniProt P04439, D140Y/D185E/D98H/E176V/E277Q/G131W/G231S/I119V/I121R/I166T/I218V/L300P/L318F/N151K/N90K/P208A/P217A/Q86G/Q94H/R138H/R169H/T345S); test: MHC binding assay (UV-ligand exchange, anti-β2m ELISA, peptide exchange yield); settings: binding to HLA-A*02:01
Summary of the method: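 Peptide-MHC complexes formed by UV-ligand exchange, cleaving a UV-sensitive placeholder peptide in favour of the test peptide. Exchange yield measured by ELISA: monomers diluted 100-fold onto streptavidin-coated plates, 1 h 37 °C, detected with 2 ug/ml HRP anti-β2m and TMB, absorbance at 450 nm.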

Substance	Peptide exchange (MHC class I binding score, peptide exchange yield)
225 (SLLKVLPAL; listed as Homo sapiens) [compound 225]	“+++” (>50 = +++)
226 (MLYVVPIYL; listed as Homo sapiens) [compound 226]	“++” (>20% = ++)
227 (ALMNTLLYL; listed as Homo sapiens) [compound 227]	“++” (>20% = ++)
228 (AMQEYIAVV; listed as Homo sapiens) [compound 228]	“++” (>20% = ++)
229 (RLPGPLGTV; listed as Homo sapiens) [compound 229]	“++” (>20% = ++)
230 (ILVDWLVEV; listed as Homo sapiens) [compound 230]	“+” (>10% = +)
231 (FLSPQQPPLLL; listed as Homo sapiens) [compound 231]	“++” (>20% = ++)
232 (ALLEAQDVELYL; listed as Homo sapiens) [compound 232]	“++” (>20% = ++)
233 (VLSETLYEL; listed as Homo sapiens) [compound 233]	“++” (>20% = ++)
234 (ALMEDTGRQML; listed as Homo sapiens) [compound 234]	“++” (>20% = ++)
235 (YLNDLHEVLL; listed as Homo sapiens) [compound 235]	“++++” (>75% = ++++)
236 (GLLEAKVSL; listed as Homo sapiens) [compound 236]	“+++” (>50 = +++)
237 (ALLEASGTLLL; listed as Homo sapiens) [compound 237]	“++++” (>75% = ++++)
238 (YLISFQTHI; listed as Homo sapiens) [compound 238]	“+++” (>50 = +++)
239 (AAFAGKLLSV; listed as Homo sapiens) [compound 239]	“+++” (>50 = +++)
240 (ILLEQAFYL; listed as Homo sapiens) [compound 240]	“+++” (>50 = +++)
241 (SLVEVNPAYSV; listed as Homo sapiens) [compound 241]	“+++” (>50 = +++)
243 (LLLNELPSV; listed as Homo sapiens) [compound 243]	“+++” (>50 = +++)
244 (SLFGGTEITI; listed as Homo sapiens) [compound 244]	“+++” (>50 = +++)
245 (SMIDDLLGV; listed as Homo sapiens) [compound 245]	“+++” (>50 = +++)
246 (LLWEVVSQL; listed as Homo sapiens) [compound 246]	“+++” (>50 = +++)
248 (FLFPNQYVDV; listed as Homo sapiens) [compound 248]	“+++” (>50 = +++)
249 (LLDGFLVNV; listed as Homo sapiens) [compound 249]	“+++” (>50 = +++)
250 (ALSEEGLLVYL; listed as Homo sapiens) [compound 250]	“+++” (>50 = +++)
251 (ALYTGFSILV; listed as Homo sapiens) [compound 251]	“++” (>20% = ++)
252 (LLIGTDVSL; listed as Homo sapiens) [compound 252]	“+++” (>50 = +++)
253 (GLDAATATV; listed as Homo sapiens) [compound 253]	“++” (>20% = ++)
254 (TLLAFIMEL; listed as Homo sapiens) [compound 254]	“+++” (>50 = +++)
